This experiment has as its target acetylcholine receptor (Homo sapiens, UniProt P02708). Description: SPR binding affinity (RU) of optimized 5mer/6mer/7mer peptides, Examples 6-7. The settings on record: SPR, peptides tested at 10 μM. How it is done: Based on the frequencies of occurrence of the top 7 amino acids from Table 7 in Example 5, 600 peptides comprising these amino acids (top combinations) and those comprising the 13 less frequently occurring amino acids (bottom combinations) were synthesized for each series of 5mer, 6mer-1, and 6mer-2. The binding affinity of each sequence for the acetylcholine receptor was measured using Surface Plasmon Resonance (SPR) analysis method. The peptides were tested at a concentration of 10 μM. Additionally, the average binding affinities of the top and bottom combinations in each series are depicted in FIGS. 5-7.
Representative peptides identified in Example 6, two in each library, including 5mers (73, 311) and 6mers-1 (43, 210) and 6mers-2 (136, 233), were compared with the pre-optimized 6mer, 5mer-ND, and Synake.
For orientation: In SPR one partner is held on a chip, and binding of the other changes the refractive index at the surface.

Setting [1] is: 5mer Top sequence (top combinations).
[2] abbreviates: Resonance Units, 5mer Bottom sequence (bottom combinations).

Sequence of acetylcholine receptor (P02708 21-457): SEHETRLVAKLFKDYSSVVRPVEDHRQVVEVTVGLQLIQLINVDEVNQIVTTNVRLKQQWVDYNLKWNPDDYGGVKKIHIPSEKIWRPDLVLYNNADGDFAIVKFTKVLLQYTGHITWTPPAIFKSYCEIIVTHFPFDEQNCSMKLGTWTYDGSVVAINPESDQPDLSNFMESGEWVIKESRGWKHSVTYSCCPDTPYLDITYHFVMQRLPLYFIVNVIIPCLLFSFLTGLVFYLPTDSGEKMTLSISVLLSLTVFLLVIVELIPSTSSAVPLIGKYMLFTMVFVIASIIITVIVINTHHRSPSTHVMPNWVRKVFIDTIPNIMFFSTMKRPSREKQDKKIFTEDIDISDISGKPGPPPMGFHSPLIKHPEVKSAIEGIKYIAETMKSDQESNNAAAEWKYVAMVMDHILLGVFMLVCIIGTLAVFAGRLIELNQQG

As to 5mer-550 (RQQSR), the Binding affinity under setting [1] was 83 Ru.

5mer-551 (RWQYR): the Binding affinity under setting [1] amounted to 59 Ru.

For 5mer-552 (RLYSR), the Binding affinity under setting [1] was determined as 63 Ru.

For 5mer-553 (KLLSR), the Binding affinity under setting [1] is recorded as 72 Ru.

Take 5mer-554 (RLLSK): the Binding affinity under setting [1] is reported as 65 Ru.

Take 5mer-555 (KVQCK): the Binding affinity under setting [1] turned out to be 71 Ru.

As to 5mer-556 (RVIYK), the Binding affinity under setting [1] is given as 52 Ru.

Consider 5mer-557 (KQRRK), for which the Binding affinity under setting [1] was found to be 87 Ru.

Turning to 5mer-558 (RWRYK), under setting [1], the Binding affinity was 84 Ru.

On to 5mer-559 (KQQLK), for which the Binding affinity under setting [1] worked out at 81 Ru.

For 5mer-560 (KWYQR), the Binding affinity under setting [1] is 59 Ru.

For 5mer-561 (KWRCK), under setting [1], the Binding affinity was 72 Ru.

5mer-562 (RVRQR): the Binding affinity under setting [1] is reported as 70 Ru.

With 5mer-563 (RLVLK), the Binding affinity under setting [1] was 60 Ru.

Regarding 5mer-564 (RSRYR), the Binding affinity under setting [1] is reported as 74 Ru.

As to 5mer-565 (RLVSK), under setting [1], the Binding affinity stood at 77 Ru.

On to 5mer-566 (KQLYK), for which, under setting [1], the Binding affinity was 78 Ru.

5mer-567 (RRYCK): under setting [1], the Binding affinity was 63 Ru.

Regarding 5mer-568 (KQITR), the Binding affinity under setting [1] came to 64 Ru.

On to 5mer-569 (RQQRK), for which the Binding affinity under setting [1] is on record as 79 Ru.

As to 5mer-570 (KLVRR), the Binding affinity under setting [1] worked out at 56 Ru.

5mer-571 (RRLTK): the Binding affinity under setting [1] is on record as 51 Ru.

As to 5mer-572 (KLRTK), under setting [1], the Binding affinity was determined as 58 Ru.

For 5mer-573 (RSIYR), the Binding affinity under setting [1] was found to be 84 Ru.

As for 5mer-574 (KGFTR), under setting [1], the Binding affinity was determined as 59 Ru.

As to 5mer-575 (KGFYR), the Binding affinity under setting [1] turned out to be 69 Ru.

On to 5mer-576 (RLFRK), for which the Binding affinity under setting [1] is 62 Ru.

With 5mer-577 (KLVTK), under setting [1], the Binding affinity came out at 77 Ru.

For the substance 5mer-578 (KSVLR), the Binding affinity under setting [1] is on record as 65 Ru.

Turning to 5mer-579 (RSLYK), the Binding affinity under setting [1] turned out to be 53 Ru.

Turning to 5mer-580 (RGYTR), the Binding affinity under setting [1] stood at 70 Ru.

Turning to 5mer-581 (KGVLR), the Binding affinity under setting [1] was found to be 65 Ru.

Take 5mer-582 (RGICK): the Binding affinity under setting [1] amounted to 82 Ru.

Turning to 5mer-583 (KVVYR), the Binding affinity under setting [1] was 75 Ru.

In the case of 5mer-584 (KQIQK), the Binding affinity under setting [1] is given as 76 Ru.

Consider 5mer-585 (RSVSK), for which the Binding affinity under setting [1] stood at 74 Ru.

Turning to 5mer-586 (KGRRR), the Binding affinity under setting [1] is on record as 78 Ru.

On to 5mer-587 (RVITR), for which the Binding affinity under setting [1] came to 66 Ru.

Turning to 5mer-588 (RSFTR), the Binding affinity under setting [1] came out at 60 Ru.

5mer-589 (KGLCR): the Binding affinity under setting [1] was 58 Ru.

5mer-590 (KQYTK): the Binding affinity under setting [1] is given as 81 Ru.

With 5mer-591 (RVYTK), the Binding affinity under setting [1] turned out to be 61 Ru.

For the substance 5mer-592 (RWLCR), the Binding affinity under setting [1] is recorded as 56 Ru.

Turning to 5mer-593 (KQYLK), under setting [1], the Binding affinity was 77 Ru.

In the case of 5mer-594 (KQYSR), the Binding affinity under setting [1] worked out at 50 Ru.

Regarding 5mer-595 (KWQQR), the Binding affinity under setting [1] turned out to be 58 Ru.

Turning to 5mer-596 (KLQQR), the Binding affinity under setting [1] is reported as 56 Ru.

With 5mer-597 (KLVSR), under setting [1], the Binding affinity is 68 Ru.

For 5mer-598 (RVRSK), under setting [1], the Binding affinity is recorded as 84 Ru.

Consider 5mer-599 (KWVSR), for which, under setting [1], the Binding affinity turned out to be 61 Ru.

As for 5mer-600 (KLYSK), the Binding affinity under setting [1] is recorded as 64 Ru.

In the case of 5mer-601 (RFCFK), the Binding affinity under setting [2] worked out at 13 Ru.

For 5mer-602 (KMSVR), the Binding affinity under setting [2] is 12 Ru.

For 5mer-603 (RKEPK), under setting [2], the Binding affinity was 27 Ru.

With 5mer-604 (RKEGK), the Binding affinity under setting [2] came to 13 Ru.

Take 5mer-605 (RECFK): under setting [2], the Binding affinity is 22 Ru.

Take 5mer-606 (RIHWK): the Binding affinity under setting [2] is listed as 25 Ru.

Consider 5mer-607 (RIEER), for which the Binding affinity under setting [2] came out at 25 Ru.

In the case of 5mer-608 (RDSER), under setting [2], the Binding affinity was determined as 20 Ru.

With 5mer-609 (RKTMK), the Binding affinity under setting [2] is on record as 32 Ru.

On to 5mer-610 (KCDDK), for which the Binding affinity under setting [2] is recorded as 16 Ru.

For 5mer-611 (KDHIR), the Binding affinity under setting [2] is 33 Ru.

As to 5mer-612 (KCTDK), under setting [2], the Binding affinity is reported as 23 Ru.

On to 5mer-613 (RAEFR), for which, under setting [2], the Binding affinity is 20 Ru.

As for 5mer-614 (RNTWK), the Binding affinity under setting [2] was determined as 29 Ru.

For 5mer-615 (KCCNR), the Binding affinity under setting [2] was 20 Ru.

On to 5mer-616 (KFCPR), for which, under setting [2], the Binding affinity is 15 Ru.

On to 5mer-617 (RYCAK), for which, under setting [2], the Binding affinity turned out to be 28 Ru.

Consider 5mer-618 (RMSWK), for which the Binding affinity under setting [2] is reported as 19 Ru.

5mer-619 (KCSFK): under setting [2], the Binding affinity is given as 19 Ru.

As to 5mer-620 (RCMHK), the Binding affinity under setting [2] worked out at 23 Ru.

On to 5mer-621 (KKSMK), for which, under setting [2], the Binding affinity was 13 Ru.

For 5mer-622 (RKPKR), the Binding affinity under setting [2] is 22 Ru.

For 5mer-623 (KNTGR), the Binding affinity under setting [2] worked out at 19 Ru.

Take 5mer-624 (KEHER): the Binding affinity under setting [2] is 22 Ru.

As for 5mer-625 (KMCDR), the Binding affinity under setting [2] was found to be 33 Ru.

For the substance 5mer-626 (KICMR), under setting [2], the Binding affinity is 12 Ru.

Regarding 5mer-627 (KMSPK), under setting [2], the Binding affinity was determined as 30 Ru.

As to 5mer-628 (RYMDR), the Binding affinity under setting [2] turned out to be 19 Ru.

For 5mer-629 (RPTNK), the Binding affinity under setting [2] is 32 Ru.

5mer-630 (RITFR): the Binding affinity under setting [2] worked out at 30 Ru.

For the substance 5mer-631 (RPANR), the Binding affinity under setting [2] was determined as 17 Ru.

Consider 5mer-632 (RFSHR), for which the Binding affinity under setting [2] came out at 33 Ru.

For the substance 5mer-633 (RAAKR), under setting [2], the Binding affinity stood at 20 Ru.

For the substance 5mer-634 (RMMMR), under setting [2], the Binding affinity is reported as 26 Ru.

Turning to 5mer-635 (RMNGR), the Binding affinity under setting [2] is reported as 21 Ru.

Turning to 5mer-636 (KDKGR), the Binding affinity under setting [2] is on record as 11 Ru.

On to 5mer-637 (KCDHK), for which the Binding affinity under setting [2] stood at 28 Ru.

On to 5mer-638 (KHCIR), for which, under setting [2], the Binding affinity worked out at 33 Ru.

Consider 5mer-639 (KETWK), for which the Binding affinity under setting [2] came to 13 Ru.

On to 5mer-640 (KNPHK), for which the Binding affinity under setting [2] came out at 15 Ru.

Take 5mer-641 (RITWK): the Binding affinity under setting [2] came to 22 Ru.

In the case of 5mer-642 (RAWDR), the Binding affinity under setting [2] is 22 Ru.

Take 5mer-643 (KHDGR): the Binding affinity under setting [2] worked out at 28 Ru.

In the case of 5mer-644 (RMKWK), the Binding affinity under setting [2] was determined as 24 Ru.

For 5mer-645 (RHKDK), the Binding affinity under setting [2] was 20 Ru.

Regarding 5mer-646 (KDTKR), the Binding affinity under setting [2] came out at 16 Ru.

Turning to 5mer-647 (KHTVK), the Binding affinity under setting [2] turned out to be 29 Ru.

Regarding 5mer-648 (KNKKR), the Binding affinity under setting [2] turned out to be 15 Ru.

On to 5mer-649 (RYSFK), for which the Binding affinity under setting [2] came to 20 Ru.

5mer-650 (RPEDK): the Binding affinity under setting [2] is recorded as 22 Ru.

In the case of 5mer-651 (RFTVR), the Binding affinity under setting [2] worked out at 11 Ru.

As for 5mer-652 (RCAAR), under setting [2], the Binding affinity is listed as 23 Ru.

Regarding 5mer-653 (KTTWK), the Binding affinity under setting [2] was 16 Ru.

For 5mer-654 (KEWNR), the Binding affinity under setting [2] is given as 27 Ru.

For the substance 5mer-655 (RKCIR), the Binding affinity under setting [2] amounted to 15 Ru.

Regarding 5mer-656 (KATGR), the Binding affinity under setting [2] is given as 13 Ru.

Take 5mer-657 (KDNDR): under setting [2], the Binding affinity stood at 22 Ru.

On to 5mer-658 (KKWGR), for which the Binding affinity under setting [2] turned out to be 31 Ru.

For 5mer-659 (KIHEK), the Binding affinity under setting [2] was found to be 22 Ru.

Take 5mer-660 (KFDVK): the Binding affinity under setting [2] is given as 11 Ru.

Turning to 5mer-661 (RCNMK), under setting [2], the Binding affinity is reported as 30 Ru.

Take 5mer-662 (KIEEK): the Binding affinity under setting [2] came to 28 Ru.

As to 5mer-663 (RATPR), the Binding affinity under setting [2] is reported as 31 Ru.

Regarding 5mer-664 (KPTWR), the Binding affinity under setting [2] is on record as 17 Ru.

For the substance 5mer-665 (KTWEK), the Binding affinity under setting [2] is recorded as 26 Ru.

For the substance 5mer-666 (RHDWR), the Binding affinity under setting [2] is reported as 18 Ru.

Regarding 5mer-667 (RDCHR), the Binding affinity under setting [2] turned out to be 16 Ru.

In the case of 5mer-668 (RPHAK), under setting [2], the Binding affinity came out at 27 Ru.

5mer-669 (RNPER): the Binding affinity under setting [2] turned out to be 24 Ru.

As to 5mer-670 (KPCVK), the Binding affinity under setting [2] is recorded as 23 Ru.

For the substance 5mer-671 (KMNAK), under setting [2], the Binding affinity came out at 21 Ru.

Turning to 5mer-672 (KHAPK), the Binding affinity under setting [2] came to 12 Ru.

Regarding 5mer-673 (RISPR), under setting [2], the Binding affinity amounted to 14 Ru.

Consider 5mer-674 (KETHR), for which the Binding affinity under setting [2] is given as 22 Ru.

Turning to 5mer-675 (RKPGR), the Binding affinity under setting [2] was 31 Ru.

Take 5mer-676 (RTMFR): under setting [2], the Binding affinity came out at 18 Ru.

For 5mer-677 (RCEMR), under setting [2], the Binding affinity came to 15 Ru.

On to 5mer-678 (KYMGR), for which the Binding affinity under setting [2] is reported as 23 Ru.

Take 5mer-679 (KKTVK): under setting [2], the Binding affinity worked out at 21 Ru.

In the case of 5mer-680 (RFTER), under setting [2], the Binding affinity was 21 Ru.

For 5mer-681 (KDTMR), the Binding affinity under setting [2] came to 18 Ru.

Consider 5mer-682 (KPNVK), for which, under setting [2], the Binding affinity is on record as 31 Ru.

5mer-683 (KYPDK): the Binding affinity under setting [2] was 32 Ru.

Turning to 5mer-684 (KCAER), the Binding affinity under setting [2] came to 27 Ru.

Take 5mer-685 (RNDIK): under setting [2], the Binding affinity was found to be 21 Ru.

(Values after patent publication US20250011363A1, “OPTIMIZED SHORTENED PEPTIDE THAT BINDS TO ACETYLCHOLINE RECEPTOR, AND USE THEREOF” (SKINMED CO., LTD., priority 2021, published 2025).)
